In experiment [1] the target is Arp2/3 complex branch junction (sheep Arp2/3 complex bound to rabbit actin mother and daughter filaments) (sheep (endogenous in brain) | rabbit) (UniProt P68135).
Experiment [2] has the same target. Description: microfluidics debranching assay under pulling force (TIRF microscopy of single branches); ADP-Arp2/3 branch junctions exposed to various GMF concentrations; constant average force 2.8 pN; 0.15 µM actin, 200 µM ATP; affinity from the fit of the saturation curve of the debranching rate.
Experiment [3] has the same target. This is another data set of the same source.

As to “Mouse cortactin full length (amino acids 1–546) (from UniProt Q60598 1-546) (natural protein)”, the stability (inverse debranching rate) of ADP-Arp2/3 complex branches at 6 pN with 20 nM cortactin against no cortactin in experiment [1] was 30 fold. The term Kd denotes the concentration at which binding is half-saturated. A higher Kd goes with a looser complex. In experiment [2], “Recombinant N-terminal 6xHis-tagged human GMFγ (amino acids 7–140) (from UniProt O60234 7-140) (natural protein)” yielded a Kd of 30 nM. The same substance gave a debranching rate of ADP-Arp2/3 complex branch junctions against GMF concentration (2.8 pN, 0.15 µM actin, 200 µM ATP) in experiment [3] of 6 fold.
